16 molecules from patent US20200392198A1 (UNIVERSITY OF COPENHAGEN, published 2020) can be followed below.

Common to all, as to experiment: cell-based or functional assay
The target in experiment [1] is T1, human GIP receptor (human, UniProt P48546 22-466).
T1 sequence (looked up): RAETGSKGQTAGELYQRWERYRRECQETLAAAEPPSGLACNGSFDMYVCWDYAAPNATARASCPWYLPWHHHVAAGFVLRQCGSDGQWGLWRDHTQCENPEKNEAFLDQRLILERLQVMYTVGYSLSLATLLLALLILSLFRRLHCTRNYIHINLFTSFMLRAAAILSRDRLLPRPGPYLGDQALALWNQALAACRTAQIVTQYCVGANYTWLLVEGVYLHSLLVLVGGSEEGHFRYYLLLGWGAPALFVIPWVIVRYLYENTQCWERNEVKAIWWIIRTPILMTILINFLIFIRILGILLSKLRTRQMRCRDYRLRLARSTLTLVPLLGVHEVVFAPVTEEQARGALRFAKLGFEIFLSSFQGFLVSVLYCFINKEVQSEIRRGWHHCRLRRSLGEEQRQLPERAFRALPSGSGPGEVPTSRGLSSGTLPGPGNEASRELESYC

In experiment [2] the target is T2, human GLP-2 receptor (human, UniProt O95838 1-553).
T2 sequence (looked up): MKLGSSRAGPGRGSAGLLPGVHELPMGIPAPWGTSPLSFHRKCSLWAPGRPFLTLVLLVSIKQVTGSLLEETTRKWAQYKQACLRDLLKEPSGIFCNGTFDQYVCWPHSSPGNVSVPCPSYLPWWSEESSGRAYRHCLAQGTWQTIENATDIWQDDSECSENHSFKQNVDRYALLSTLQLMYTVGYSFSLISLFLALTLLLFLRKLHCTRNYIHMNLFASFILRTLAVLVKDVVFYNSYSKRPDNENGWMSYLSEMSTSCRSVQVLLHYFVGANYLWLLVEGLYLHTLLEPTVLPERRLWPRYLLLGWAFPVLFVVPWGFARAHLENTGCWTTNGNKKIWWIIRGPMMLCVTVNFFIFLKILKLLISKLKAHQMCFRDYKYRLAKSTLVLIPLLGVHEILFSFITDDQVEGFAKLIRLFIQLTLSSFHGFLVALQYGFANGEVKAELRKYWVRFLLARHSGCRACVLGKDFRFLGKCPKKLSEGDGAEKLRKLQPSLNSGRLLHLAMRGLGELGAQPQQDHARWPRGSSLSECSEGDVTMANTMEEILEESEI

Experiment [3] deals with T1, human GIP receptor. The source holds these as a separate data set.
For experiment [4], the target named is T2, human GLP-2 receptor. The source holds these as a separate data set.

Like-named read-outs stand apart in the source and are kept apart here. Ends that are not written are not given here. * marks the point of attachment. Palmitoyl = CCCCCCCCCCCCCCCC(=O)*; Lauroyl = CCCCCCCCCCCC(=O)*

Regarding HADGTFISDYSTILDNLAARDFINWLIQTK(Palmitoyl)ITK [GIP-GLP-2 co-agonist 31], in the experiment with human GIP receptor [1], the “EC50 (cAMP)” value was found to be 1.7 nM; the “Emax (10 µM), % of native GIP” value is 91%; the “fold (EC50 vs native GIP)” value stood at 19 fold; the “logEC50 (cAMP)” value was -8.77. For the same molecule, in the experiment with human GLP-2 receptor [2], the “EC50 (cAMP)” value came to 107 nM; the “Emax (10 µM), % of native GLP-2” value came to 91%; the “fold (EC50 vs native GLP-2)” value was 89 fold; the “logEC50 (cAMP)” value is -6.97.
HADGTFSSDYSTILDNLAARDFINWLIQTK(Palmitoyl)ITD [GIP-GLP-2 co-agonist 23]: in the experiment with human GIP receptor [1], the “EC50 (cAMP)” value was 0.76 nM; the “Emax (10 µM), % of native GIP” value turned out to be 81%; the “fold (EC50 vs native GIP)” value came to 8.5 fold; the “logEC50 (cAMP)” value was -9.12. Further, in the experiment with human GLP-2 receptor [2], the “EC50 (cAMP)” value was determined as 1.4 nM; the “Emax (10 µM), % of native GLP-2” value worked out at 57%; the “fold (EC50 vs native GLP-2)” value came to 1.2 fold; the “logEC50 (cAMP)” value is -8.85.
On to HADGTFSSDYSTILDNLAAK(Palmitoyl)DFINWLIQTKITD [GIP-GLP-2 co-agonist 21], for which, in the experiment with human GIP receptor [1], the “EC50 (cAMP)” value worked out at 34 nM; the “Emax (10 µM), % of native GIP” value was found to be 94%; the “fold (EC50 vs native GIP)” value is 381 fold; the “logEC50 (cAMP)” value is -7.47. In the experiment with human GLP-2 receptor [2], the “EC50 (cAMP)” value was 6 nM; the “Emax (10 µM), % of native GLP-2” value came out at 75%; the “fold (EC50 vs native GLP-2)” value worked out at 5 fold; the “logEC50 (cAMP)” value was -8.22.
HADGTFSSDYSTILDNLAAKDFINWLIQTKITD [GIP-GLP-2 co-agonist 20]: in the experiment with human GIP receptor [1], the “EC50 (cAMP)” value came out at 0.59 nM; the “Emax (10 µM), % of native GIP” value stood at 98%; the “fold (EC50 vs native GIP)” value is 6.6 fold; the “logEC50 (cAMP)” value is -9.23. Besides, in the experiment with human GLP-2 receptor [2], the “EC50 (cAMP)” value was found to be 1.2 nM; the “Emax (10 µM), % of native GLP-2” value came out at 80%; the “fold (EC50 vs native GLP-2)” value is 1 fold; the “logEC50 (cAMP)” value is -8.92.
In the case of HADGTFISDYSTIKDNLAARDFINWLIQTKITK [GIP-GLP-2 co-agonist 25], in the experiment with human GIP receptor [1], the “EC50 (cAMP)” value turned out to be 0.44 nM; the “Emax (10 µM), % of native GIP” value came to 92%; the “fold (EC50 vs native GIP)” value was 4.9 fold; the “logEC50 (cAMP)” value is -9.36. Further, in the experiment with human GLP-2 receptor [2], the “EC50 (cAMP)” value was determined as 3.5 nM; the “Emax (10 µM), % of native GLP-2” value worked out at 92%; the “fold (EC50 vs native GLP-2)” value came out at 2.9 fold; the “logEC50 (cAMP)” value was -8.46.
With HADGTFISDYSTILDNLKARDFINWLIQTKITK [GIP-GLP-2 co-agonist 27], in the experiment with human GIP receptor [1], the “EC50 (cAMP)” value amounted to 0.55 nM; the “Emax (10 µM), % of native GIP” value came out at 100%; the “fold (EC50 vs native GIP)” value stood at 6.2 fold; the “logEC50 (cAMP)” value is -9.26. Besides, in the experiment with human GLP-2 receptor [2], the “EC50 (cAMP)” value is 0.56 nM; the “Emax (10 µM), % of native GLP-2” value worked out at 100%; the “fold (EC50 vs native GLP-2)” value was 0.47 fold; the “logEC50 (cAMP)” value is -9.25.

B1: GIP-GLP-2 co-agonist 22 (peptide)
peptide: HADGTFSSDYSTILDNLAARDFINWLIQTKITD
modifications: not fully specified (residue 1, N-terminus); also: C16 acyl group on His 1 (attachment site not given here)
Take B1: in the experiment with human GIP receptor [1], the “EC50 (cAMP)” value was 0.41 nM; the “Emax (10 µM), % of native GIP” value is 100%; the “fold (EC50 vs native GIP)” value was 4.6 fold; the “logEC50 (cAMP)” value was -9.39. Also, in the experiment with human GLP-2 receptor [2], the “EC50 (cAMP)” value stood at 1.3 nM; the “Emax (10 µM), % of native GLP-2” value stood at 72%; the “fold (EC50 vs native GLP-2)” value was 1.1 fold; the “logEC50 (cAMP)” value was -8.88.
Take HADGTFISDYSTILDNLAAKDFINWLIQTKITK [GIP-GLP-2 co-agonist 28]: in the experiment with human GIP receptor [1], the “EC50 (cAMP)” value was determined as 0.2 nM; the “Emax (10 µM), % of native GIP” value stood at 100%; the “fold (EC50 vs native GIP)” value was found to be 2.2 fold; the “logEC50 (cAMP)” value is -9.7. Further, in the experiment with human GLP-2 receptor [2], the “EC50 (cAMP)” value is 1.2 nM; the “Emax (10 µM), % of native GLP-2” value was found to be 112%; the “fold (EC50 vs native GLP-2)” value is 0.98 fold; the “logEC50 (cAMP)” value is -8.93.
With HADGTFISDYSTILDNLAARDFINWLIQTKITK (C16 acyl group on Lys 33 (K(c16/33), 'with C16 pos 33')) [GIP-GLP-2 co-agonist 33], in the experiment with human GIP receptor [1], the “EC50 (cAMP)” value is 0.32 nM; the “Emax (10 µM), % of native GIP” value was determined as 100%; the “fold (EC50 vs native GIP)” value came out at 3.6 fold; the “logEC50 (cAMP)” value was -9.5. Also, in the experiment with human GLP-2 receptor [2], the “EC50 (cAMP)” value was found to be 13 nM; the “Emax (10 µM), % of native GLP-2” value is 82%; the “fold (EC50 vs native GLP-2)” value is 11 fold; the “logEC50 (cAMP)” value was -7.89.
HADGTFISDYSTILDKLAARDFINWLIQTKITK [GIP-GLP-2 co-agonist 26]: in the experiment with human GIP receptor [1], the “EC50 (cAMP)” value stood at 0.03 nM; the “Emax (10 µM), % of native GIP” value worked out at 100%; the “fold (EC50 vs native GIP)” value is 0.34 fold; the “logEC50 (cAMP)” value was -10.5. Further, in the experiment with human GLP-2 receptor [2], the “EC50 (cAMP)” value came out at 0.31 nM; the “Emax (10 µM), % of native GLP-2” value turned out to be 100%; the “fold (EC50 vs native GLP-2)” value was found to be 0.26 fold; the “logEC50 (cAMP)” value was -9.51.
Regarding HADGTFISDYSKILDNLAARDFINWLIQTKITK [GIP-GLP-2 co-agonist 24], in the experiment with human GIP receptor [1], the “EC50 (cAMP)” value amounted to 0.15 nM; the “Emax (10 µM), % of native GIP” value stood at 100%; the “fold (EC50 vs native GIP)” value amounted to 1.7 fold; the “logEC50 (cAMP)” value was -9.82. Further, in the experiment with human GLP-2 receptor [2], the “EC50 (cAMP)” value worked out at 0.74 nM; the “Emax (10 µM), % of native GLP-2” value is 96%; the “fold (EC50 vs native GLP-2)” value is 0.62 fold; the “logEC50 (cAMP)” value was -9.13.
In the case of HGDGTFISDYSTILDNLAARDFINWLIQTKITD [GIP-GLP-2 co-agonist 11], in the experiment with human GIP receptor [3], the “EC50 (cAMP)” value stood at 3.2 nM; the “Emax (10 µM), % of native GIP” value worked out at 95%; the “fold (EC50 vs native GIP)” value is 36 fold; the “logEC50 (cAMP)” value is -8.5. Further, in the experiment with human GLP-2 receptor [4], the “EC50 (cAMP)” value was found to be 24 nM; the “Emax (10 µM), % of native GLP-2” value turned out to be 87%; the “fold (EC50 vs native GLP-2)” value was determined as 20 fold; the “logEC50 (cAMP)” value is -7.62.
For the molecule HADGTFISDYSTILDNLAARDFINWLIQTKITK (C12 acyl group on Lys 33 (K(C12/33), 'with C12 pos 33')) [GIP-GLP-2 co-agonist 32], in the experiment with human GIP receptor [1], the “EC50 (cAMP)” value turned out to be 0.15 nM; the “Emax (10 µM), % of native GIP” value was 100%; the “fold (EC50 vs native GIP)” value amounted to 1.7 fold; the “logEC50 (cAMP)” value is -9.81. For the same molecule, in the experiment with human GLP-2 receptor [2], the “EC50 (cAMP)” value stood at 6.2 nM; the “Emax (10 µM), % of native GLP-2” value stood at 91%; the “fold (EC50 vs native GLP-2)” value worked out at 5.1 fold; the “logEC50 (cAMP)” value was -8.21.

B2: GIP-GLP-2 co-agonist 29 (peptide)
peptide: HADGTFISDYSTILDNLAARDFINWLIQTKITK
modifications: not fully specified (residue 1, N-terminus); also: C16 acyl group on His 1 (attachment site not given here)
In the case of B2, in the experiment with human GIP receptor [1], the “EC50 (cAMP)” value came to 1.82 nM; the “Emax (10 µM), % of native GIP” value is 115%; the “fold (EC50 vs native GIP)” value came out at 20 fold; the “logEC50 (cAMP)” value was -8.74. Besides, in the experiment with human GLP-2 receptor [2], the “EC50 (cAMP)” value turned out to be 17 nM; the “Emax (10 µM), % of native GLP-2” value stood at 82%; the “fold (EC50 vs native GLP-2)” value amounted to 14 fold; the “logEC50 (cAMP)” value is -7.76.
In the case of HADGSFSDEMNTILDNLAARDFINWLIQTKITD (ligand) [human native GLP-2], in the experiment with human GIP receptor [3], the “EC50 (cAMP)” value was found to be 56 nM; the “Emax (10 µM), % of native GIP” value came out at 22%; the “logEC50 (cAMP)” value was -7.25. Moreover, in the experiment with human GIP receptor [1], the “EC50 (cAMP)” value stood at 56 nM; the “Emax (10 µM), % of native GIP” value was determined as 22%; the “logEC50 (cAMP)” value is -7.25.
As for HADGTFISDYSTILDNLAARDFINWLIQTK(Lauroyl)ITK [GIP-GLP-2 co-agonist 30], in the experiment with human GIP receptor [1], the “EC50 (cAMP)” value came out at 0.63 nM; the “Emax (10 µM), % of native GIP” value was found to be 100%; the “fold (EC50 vs native GIP)” value was determined as 7.1 fold; the “logEC50 (cAMP)” value is -9.2. Besides, in the experiment with human GLP-2 receptor [2], the “EC50 (cAMP)” value came to 36 nM; the “Emax (10 µM), % of native GLP-2” value was found to be 73%; the “fold (EC50 vs native GLP-2)” value was found to be 30 fold; the “logEC50 (cAMP)” value was -7.44.
